According to publication PMC6158172, “A bidentate Polycomb Repressive-Deubiquitinase complex is required for efficient activity on nucleosomes” (Nature Communications, 2018):

B1: Calypso^43–404 (wild type), as in the Calypso^43–404–ASX^207–340 complex [Drosophila melanogaster] / itself (parent)
chain: ADGWLELESDPGLFTLLLKDFGCHDVQVEEVYDLQKPIESPYGFIFLFRWIEERRARRKIVETTAEIFVKDEEAISSIFFAQQVVPNSCATHALLSVLLNCNENNLQLGDTLSRLKTHTKGMSPENKGLAIGNTPELACAHNSHAMPQARRRLERTGAGVSSCRFTGEAFHFVSFVPINGQLFELDGLKPYPMNHGGWEDSEDWTDKFRRVMAERLGIATGEQDIRFNLMAVVPDRRIAITHKLKMLRTNQAIVSGTLQKLLKADEQGESGNGDSQRPDTPTTLLEPSAFTARDLQSLLKNLDTEIAINEQHLADENDRRHMFKVDASRRTHNYDKFICTFLSMLAHQGVLGELVSQHLLPS

Variants of: B1
Assay: SEC-MALLS (Calypso–Calypso dimerisation within the Calypso–ASX complex)
Details: with itself; 50 μM; 20 mM HEPES pH 7.5 and 100 mM NaCl; read off a plot

Row | Variant | screen value [kDa]
1 | chain 1 M246R | 77
